Reference: publication PMC7715031

Molecular target: VISTA-Fc human recombinant protein (human), Q9H7M9
Assay: synchrotron radiation circular dichroism (SRCD) titration; fixed concentration of VISTA-Fc (or human Ig-Fc) and increasing concentrations of galectin-9, in solution; 23°C
Details: remark: other sources report otherwise

B1: human recombinant galectin-9, O00182 1-355 (ligand)
chain: MAFSGSQAPYLSPAVPFSGTIQGGLQDGLQITVNGTVLSSSGTRFAVNFQTGFSGNDIAFHFNPRFEDGGYVVCNTRQNGSWGPEERKTHMPFQKGMPFDLCFLVQSSDFKVMVNGILFVQYFHRVPFHRVDTISVNGSVQLSYISFQNPRTVPVQPAFSTVPFSQPVCFPPRPRGRRQKPPGVWPANPAPITQTVIHTVQSAPGQMFSTPAIPPMMYPHPAYPMPFITTILGGLYPSKSILLSGTVLPSAQRFHINLCSGNHIAFHLNPRFDENAVVRNTQIDNSWGSEERSLPRKMPFVRGQSFSVWILCEAHCLKVAVDGQHLFEYYHRLRNLPTINRLEVGGDIQLTHVQT
Kd: 18 nM
